The record followed here is publication PMC12708868.

In this test the target is 1G4 TCRαβ with TCRβ T130C/H172C, on J8Zb2m-α-β- reporter T cells (human).

“iTAg tetramer/APC – HLA-A*02:01 NY-ESO-1 (…) (from UniProt P61769 21-119) (peptide-MHC)” had a peak NFAT reporter response to HLA–antigen tetramers relative to wild type of 50 % reduction.
